Results published in US20180273587A1 (AILERON THERAPEUTICS, published 2018).
One block for each binder: values may come before it. Positions of bridges follow the written chain, without caps; N, C: chain ends. Non-standard residues stand in square brackets, D forms with d. Gly(1-adamantyl) = N[C@H](C(=O)O)C12CC3CC(CC(C3)C1)C2; Phe(4-CF3) = N[C@@H](Cc1ccc(C(F)(F)F)cc1)C(=O)O; Phe(4-tBu) = CC(C)(C)c1ccc(C[C@H](N)C(=O)O)cc1; Bip = N[C@@H](Cc1ccc(-c2ccccc2)cc1)C(=O)O; Igl = N[C@H](C(=O)O)C1Cc2ccccc2C1; R8 = C=CCCCCCC[C@@](C)(N)C(=O)O; Cha = N[C@@H](CC1CCCCC1)C(=O)O; hAdm = homo-adamantyl glycine; S5 = C=CCCC[C@](C)(N)C(=O)O

Columns and labels:
Assay in all cases: Ki table, method not stated
[1] = molecular target: T1, MCL-1 (UniProt Q07820 172-327, limits assumed)
T1 construct: also called Myeloid cell leukemia 1
T1 sequence (Q07820 172-327 limits assumed): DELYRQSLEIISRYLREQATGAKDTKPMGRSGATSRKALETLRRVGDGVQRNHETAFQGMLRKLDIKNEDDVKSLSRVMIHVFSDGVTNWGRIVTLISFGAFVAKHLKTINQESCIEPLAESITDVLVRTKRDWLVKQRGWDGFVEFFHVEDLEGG

[2] = molecular target: BCL-2 (UniProt P10415 1-217, limits assumed)
Sequence of BCL-2 (P10415 1-217 limits assumed): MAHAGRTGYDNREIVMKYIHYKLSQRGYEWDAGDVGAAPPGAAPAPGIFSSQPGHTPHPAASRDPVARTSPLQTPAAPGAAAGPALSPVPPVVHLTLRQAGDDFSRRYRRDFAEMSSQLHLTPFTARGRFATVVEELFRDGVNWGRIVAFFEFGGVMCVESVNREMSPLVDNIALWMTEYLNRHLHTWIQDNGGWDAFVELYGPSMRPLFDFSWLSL

[3] = molecular target: BCL-XL (UniProt Q07817 1-209)
Sequence of BCL-XL (Q07817 1-209): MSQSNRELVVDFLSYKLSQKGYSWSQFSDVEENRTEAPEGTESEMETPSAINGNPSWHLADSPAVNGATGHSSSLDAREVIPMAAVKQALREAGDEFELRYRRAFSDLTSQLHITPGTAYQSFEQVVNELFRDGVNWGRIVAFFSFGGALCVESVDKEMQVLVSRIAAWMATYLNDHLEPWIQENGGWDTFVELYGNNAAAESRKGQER

B1: SEQ ID NO: 1633 (peptide)
peptide: IWIAQALRAIGDAFNAYYA
modifications: not fully specified; Ac- at N-terminus; -NH2 at C-terminus; $r8 at 9 and $ at 16 joined by all-carbon crosslinker
Ki [1]: 8.4 nM
Ki [2]: 84.8 nM
Ki [3]: 22.4 nM

B2: SEQ ID NO: 1648 (peptide)
peptide: Ac-IAIAQALR[R8]IGDAFN[S5]YYA-NH2
modifications: staple 9-16
SMILES: CC[C@H](C)[C@H](NC(C)=O)C(=O)N[C@@H](C)C(=O)N[C@H](C(=O)N[C@@H](C)C(=O)N[C@@H](CCC(N)=O)C(=O)N[C@@H](C)C(=O)N[C@@H](CC(C)C)C(=O)N[C@@H](CCCNC(=N)N)C(=O)N[C@]1(C)CCCCCCC=CCCC[C@@](C)(C(=O)N[C@@H](Cc2ccc(O)cc2)C(=O)N[C@@H](Cc2ccc(O)cc2)C(=O)N[C@@H](C)C(N)=O)NC(=O)[C@H](CC(N)=O)NC(=O)[C@H](Cc2ccccc2)NC(=O)[C@H](C)NC(=O)[C@H](CC(=O)O)NC(=O)CNC(=O)[C@H]([C@@H](C)CC)NC1=O)[C@@H](C)CC
Ki [1]: 19.7 nM
Ki [2]: 37.7 nM
Ki [3]: 22.3 nM

B3: SEQ ID NO: 1687 (peptide)
peptide: Ac-IWIAQA[Cha]R[R8]IGDAFN[S5]YYA-NH2
modifications: staple 9-16
SMILES: CC[C@H](C)[C@H](NC(C)=O)C(=O)N[C@@H](Cc1c[nH]c2ccccc12)C(=O)N[C@H](C(=O)N[C@@H](C)C(=O)N[C@@H](CCC(N)=O)C(=O)N[C@@H](C)C(=O)N[C@@H](CC1CCCCC1)C(=O)N[C@@H](CCCNC(=N)N)C(=O)N[C@]1(C)CCCCCCC=CCCC[C@@](C)(C(=O)N[C@@H](Cc2ccc(O)cc2)C(=O)N[C@@H](Cc2ccc(O)cc2)C(=O)N[C@@H](C)C(N)=O)NC(=O)[C@H](CC(N)=O)NC(=O)[C@H](Cc2ccccc2)NC(=O)[C@H](C)NC(=O)[C@H](CC(=O)O)NC(=O)CNC(=O)[C@H]([C@@H](C)CC)NC1=O)[C@@H](C)CC
notes: also called Ac-IWIAQAChaR$r8IGDAFN$YYA-NH2
Ki [1]: 4.2 nM
Ki [3]: 81.1 nM

B5: SEQ ID NO: 1641 (peptide)
peptide: Ac-I[S5]IAQ[S5]LR[R8]IGDEFN[S5]YYA-NH2
modifications: staple 9-16, 2-6
SMILES: CC[C@H](C)[C@H](NC(C)=O)C(=O)N[C@@]1(C)CCCC=CCCC[C@@](C)(C(=O)N[C@@H](CC(C)C)C(=O)N[C@@H](CCCNC(=N)N)C(=O)N[C@]2(C)CCCCCCC=CCCC[C@@](C)(C(=O)N[C@@H](Cc3ccc(O)cc3)C(=O)N[C@@H](Cc3ccc(O)cc3)C(=O)N[C@@H](C)C(N)=O)NC(=O)[C@H](CC(N)=O)NC(=O)[C@H](Cc3ccccc3)NC(=O)[C@H](CCC(=O)O)NC(=O)[C@H](CC(=O)O)NC(=O)CNC(=O)[C@H]([C@@H](C)CC)NC2=O)NC(=O)[C@H](CCC(N)=O)NC(=O)[C@H](C)NC(=O)[C@H]([C@@H](C)CC)NC1=O
notes: also called Ac-I$IAQ$LR$r8IGDEFN$YYA-NH2
Ki [1]: 19.5 nM
Ki [2]: 8.7 nM
Ki [3]: 11.6 nM

B6: SEQ ID NO: 1691 (peptide)
peptide: Ac-IWIAQA[hAdm]R[R8]IGDAFN[S5]YYA-NH2
modifications: staple 9-16
notes: also called Ac-IWIAQAhAdmR$r8IGDAFN$YYA-NH2
Ki [1]: 16.6 nM
Ki [2]: 240 nM

B7: SEQ ID NO: 1689 (peptide)
peptide: Ac-IWIAQA[Gly(1-adamantyl)]R[R8]IGDAFN[S5]YYA-NH2
modifications: staple 9-16
SMILES: CC[C@H](C)[C@H](NC(C)=O)C(=O)N[C@@H](Cc1c[nH]c2ccccc12)C(=O)N[C@H](C(=O)N[C@@H](C)C(=O)N[C@@H](CCC(N)=O)C(=O)N[C@@H](C)C(=O)N[C@H](C(=O)N[C@@H](CCCNC(=N)N)C(=O)N[C@]1(C)CCCCCCC=CCCC[C@@](C)(C(=O)N[C@@H](Cc2ccc(O)cc2)C(=O)N[C@@H](Cc2ccc(O)cc2)C(=O)N[C@@H](C)C(N)=O)NC(=O)[C@H](CC(N)=O)NC(=O)[C@H](Cc2ccccc2)NC(=O)[C@H](C)NC(=O)[C@H](CC(=O)O)NC(=O)CNC(=O)[C@H]([C@@H](C)CC)NC1=O)C12CC3CC(CC(C3)C1)C2)[C@@H](C)CC
notes: also called Ac-IWIAQAAdmR$r8IGDAFN$YYA-NH2
Ki [1]: 40.2 nM
Ki [3]: 110 nM

B9: SEQ ID NO: 1693 (peptide)
peptide: Ac-IWIAQA[Igl]R[R8]IGDAFN[S5]YYA-NH2
modifications: staple 9-16
SMILES: CC[C@H](C)[C@H](NC(C)=O)C(=O)N[C@@H](Cc1c[nH]c2ccccc12)C(=O)N[C@H](C(=O)N[C@@H](C)C(=O)N[C@@H](CCC(N)=O)C(=O)N[C@@H](C)C(=O)N[C@H](C(=O)N[C@@H](CCCNC(=N)N)C(=O)N[C@]1(C)CCCCCCC=CCCC[C@@](C)(C(=O)N[C@@H](Cc2ccc(O)cc2)C(=O)N[C@@H](Cc2ccc(O)cc2)C(=O)N[C@@H](C)C(N)=O)NC(=O)[C@H](CC(N)=O)NC(=O)[C@H](Cc2ccccc2)NC(=O)[C@H](C)NC(=O)[C@H](CC(=O)O)NC(=O)CNC(=O)[C@H]([C@@H](C)CC)NC1=O)C1Cc2ccccc2C1)[C@@H](C)CC
notes: also called Ac-IWIAQAIglR$r8IGDAFN$YYA-NH2
Ki [1]: 47.7 nM
Ki [3]: 147 nM

B11: SEQ ID NO: 1694 (peptide)
peptide: Ac-IWIAQA[Phe(4-CF3)]R[R8]IGDAFN[S5]YYA-NH2
modifications: staple 9-16
SMILES: CC[C@H](C)[C@H](NC(C)=O)C(=O)N[C@@H](Cc1c[nH]c2ccccc12)C(=O)N[C@H](C(=O)N[C@@H](C)C(=O)N[C@@H](CCC(N)=O)C(=O)N[C@@H](C)C(=O)N[C@@H](Cc1ccc(C(F)(F)F)cc1)C(=O)N[C@@H](CCCNC(=N)N)C(=O)N[C@]1(C)CCCCCCC=CCCC[C@@](C)(C(=O)N[C@@H](Cc2ccc(O)cc2)C(=O)N[C@@H](Cc2ccc(O)cc2)C(=O)N[C@@H](C)C(N)=O)NC(=O)[C@H](CC(N)=O)NC(=O)[C@H](Cc2ccccc2)NC(=O)[C@H](C)NC(=O)[C@H](CC(=O)O)NC(=O)CNC(=O)[C@H]([C@@H](C)CC)NC1=O)[C@@H](C)CC
notes: also called Ac-IWIAQAF4CF3R$r8IGDAFN$YYA-NH2
Ki [1]: 188 nM
Ki [3]: 10.8 nM

B12: SEQ ID NO: 1643 (peptide)
peptide: Ac-IWIAQALR[R8]IGDEFA[S5]YYA-NH2
modifications: staple 9-16
SMILES: CC[C@H](C)[C@H](NC(C)=O)C(=O)N[C@@H](Cc1c[nH]c2ccccc12)C(=O)N[C@H](C(=O)N[C@@H](C)C(=O)N[C@@H](CCC(N)=O)C(=O)N[C@@H](C)C(=O)N[C@@H](CC(C)C)C(=O)N[C@@H](CCCNC(=N)N)C(=O)N[C@]1(C)CCCCCCC=CCCC[C@@](C)(C(=O)N[C@@H](Cc2ccc(O)cc2)C(=O)N[C@@H](Cc2ccc(O)cc2)C(=O)N[C@@H](C)C(N)=O)NC(=O)[C@H](C)NC(=O)[C@H](Cc2ccccc2)NC(=O)[C@H](CCC(=O)O)NC(=O)[C@H](CC(=O)O)NC(=O)CNC(=O)[C@H]([C@@H](C)CC)NC1=O)[C@@H](C)CC
Ki [1]: 7 nM
Ki [2]: 21.9 nM
Ki [3]: 15.4 nM

Next, values leading:

Ki [1]: 5.2 nM
Ki [2]: 67 nM
Ki [3]: 12 nM
B4: SEQ ID NO: 1650 (peptide)
peptide: Ac-IWIAQALR[R8]IGDQFN[S5]YYA-NH2
modifications: staple 9-16
SMILES: CC[C@H](C)[C@H](NC(C)=O)C(=O)N[C@@H](Cc1c[nH]c2ccccc12)C(=O)N[C@H](C(=O)N[C@@H](C)C(=O)N[C@@H](CCC(N)=O)C(=O)N[C@@H](C)C(=O)N[C@@H](CC(C)C)C(=O)N[C@@H](CCCNC(=N)N)C(=O)N[C@]1(C)CCCCCCC=CCCC[C@@](C)(C(=O)N[C@@H](Cc2ccc(O)cc2)C(=O)N[C@@H](Cc2ccc(O)cc2)C(=O)N[C@@H](C)C(N)=O)NC(=O)[C@H](CC(N)=O)NC(=O)[C@H](Cc2ccccc2)NC(=O)[C@H](CCC(N)=O)NC(=O)[C@H](CC(=O)O)NC(=O)CNC(=O)[C@H]([C@@H](C)CC)NC1=O)[C@@H](C)CC

Ki [1]: 151 nM
Ki [3]: 16.9 nM
B8: SEQ ID NO: 1684 (peptide)
peptide: Ac-IW[Phe(4-tBu)]AQALR[R8]IGDAFN[S5]YYA-NH2
modifications: staple 9-16
SMILES: CC[C@H](C)[C@H](NC(C)=O)C(=O)N[C@@H](Cc1c[nH]c2ccccc12)C(=O)N[C@@H](Cc1ccc(C(C)(C)C)cc1)C(=O)N[C@@H](C)C(=O)N[C@@H](CCC(N)=O)C(=O)N[C@@H](C)C(=O)N[C@@H](CC(C)C)C(=O)N[C@@H](CCCNC(=N)N)C(=O)N[C@]1(C)CCCCCCC=CCCC[C@@](C)(C(=O)N[C@@H](Cc2ccc(O)cc2)C(=O)N[C@@H](Cc2ccc(O)cc2)C(=O)N[C@@H](C)C(N)=O)NC(=O)[C@H](CC(N)=O)NC(=O)[C@H](Cc2ccccc2)NC(=O)[C@H](C)NC(=O)[C@H](CC(=O)O)NC(=O)CNC(=O)[C@H]([C@@H](C)CC)NC1=O
notes: also called Ac-IWF4tBuAQALR$r8IGDAFN$YYA-NH2

Ki [1]: 1.8 nM
Ki [2]: 3.2 nM
Ki [3]: 1.4 nM
B10: SEQ ID NO: 1649 (peptide)
peptide: Ac-IWIAQALR[R8]IGDEFN[S5]YYA-NH2
modifications: staple 9-16
SMILES: CC[C@H](C)[C@H](NC(C)=O)C(=O)N[C@@H](Cc1c[nH]c2ccccc12)C(=O)N[C@H](C(=O)N[C@@H](C)C(=O)N[C@@H](CCC(N)=O)C(=O)N[C@@H](C)C(=O)N[C@@H](CC(C)C)C(=O)N[C@@H](CCCNC(=N)N)C(=O)N[C@]1(C)CCCCCCC=CCCC[C@@](C)(C(=O)N[C@@H](Cc2ccc(O)cc2)C(=O)N[C@@H](Cc2ccc(O)cc2)C(=O)N[C@@H](C)C(N)=O)NC(=O)[C@H](CC(N)=O)NC(=O)[C@H](Cc2ccccc2)NC(=O)[C@H](CCC(=O)O)NC(=O)[C@H](CC(=O)O)NC(=O)CNC(=O)[C@H]([C@@H](C)CC)NC1=O)[C@@H](C)CC

Ki [1]: 11 nM
Ki [3]: 3 nM
B13: SEQ ID NO: 1686 (peptide)
peptide: Ac-IW[Bip]AQALR[R8]IGDAFN[S5]YYA-NH2
modifications: staple 9-16
SMILES: CC[C@H](C)[C@H](NC(C)=O)C(=O)N[C@@H](Cc1c[nH]c2ccccc12)C(=O)N[C@@H](Cc1ccc(-c2ccccc2)cc1)C(=O)N[C@@H](C)C(=O)N[C@@H](CCC(N)=O)C(=O)N[C@@H](C)C(=O)N[C@@H](CC(C)C)C(=O)N[C@@H](CCCNC(=N)N)C(=O)N[C@]1(C)CCCCCCC=CCCC[C@@](C)(C(=O)N[C@@H](Cc2ccc(O)cc2)C(=O)N[C@@H](Cc2ccc(O)cc2)C(=O)N[C@@H](C)C(N)=O)NC(=O)[C@H](CC(N)=O)NC(=O)[C@H](Cc2ccccc2)NC(=O)[C@H](C)NC(=O)[C@H](CC(=O)O)NC(=O)CNC(=O)[C@H]([C@@H](C)CC)NC1=O
notes: also called Ac-IWBipAQALR$r8IGDAFN$YYA-NH2

Ki [1]: 10.6 nM
Ki [2]: 12.9 nM
Ki [3]: 3.9 nM
B14: SEQ ID NO: 1628 (peptide)
peptide: IWIAQALRAIGDEFNAYYARR
modifications: not fully specified; Ac- at N-terminus; -NH2 at C-terminus; $r8 at 9 and $ at 16 joined by all-carbon crosslinker
